Test results: the supplement of paper PMC9170038

Tested on: MS2 coat protein
Assay: apparent KD of MS2 coat protein; designed switch direction (-1 OFF switch, 1 ON switch): -1; higher = weaker reporter binding
Summary of the method: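 Designed RNA switches were transcribed on Illumina chips by stalled E. coli RNA polymerase and titrated with SNAP-549-labelled MS2 coat protein from 0.7 or 1.5 nM, doubling to 3 µM. Step length ran from 0.8–1.5 h at the lowest concentration to 10–20 min at the highest. The apparent KD is the median over clusters for each design, from curve-fitted normalised cluster fluorescence.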

[1] = Eterna round: R95, input ligand: FMN 200 uM
[2] = Eterna round: R95, input ligand: microRNA oligo, concentration not stated
[3] = Eterna round: R95, input ligand: none
[4] = input ligand: microRNA oligo, concentration not stated

| Sequence | apparent KD of MS2 coat protein (input ligand: FMN 200 uM) [nM] | apparent KD of MS2 coat protein (input ligand: none) [nM] | apparent KD of MS2 coat protein [2] [nM] | further results |
| --- | --- | --- | --- | --- |
| ACAAGUUUUUAGAUUCUUAACAUGAGGAUCACCCAUGUGCUCGUCUUGUUUGUACUAUCACCGAAGGUGAUAGUACA (Eterna round: R97, puzzle: Sensor, turn-off variant 1) | 69.9 | 70 | – | – |
| GGACGGUUAGUUAGGAUAUGCUCUACCUCGGUAGAGCAGAAGGGACAUGAGGAUCACCCAUGUGAUAACUGUUC [Omei Ex4B B35] (Eterna round: R97, puzzle: Brourd's mod of Exclusion 4) | 23.1 | 20.5 | – | – |
| GCCAGAGCAGGAUAUUCAAUGUAUCACAUGAGGAUCACCCAUGUCCAGCGAAAGCUGGAGGGAGAAGGGCUCUGGC [Fiskers Ex 5 - 17] (puzzle: Exclusion 5) | – | – | 234 | apparent KD of MS2 coat protein [1]: 65.6 nM; apparent KD of MS2 coat protein [3]: 257 nM |
| GCAGGAUAAGUGAGGAUAUACCUCUGGAUACAGAGGUAGAAGGCACAUGAGGAUCACCCAUGUUACUCACCUGC [Fiskers BMX 4 - 76] (puzzle: Brourd's mod of Exclusion 4) | – | – | 10.9 | – |
| CAGUACUGAGGAUAUACAUGAGGAUCACCCAUGUGUUCCGGCUAGGAUACUAGCAAAGGAAGAAGGCAGUACUG [Mat - Exclusion 3 - Eli Mod - D23] (Eterna round: R97, puzzle: Exclusion 3) | 22.7 | 17.1 | – | – |
| CGGUUGUGAGGAUAUACAUGAGGAUCACCCAUGUCCAUCCUUUCGGUAACGAUAGAACGUAGAAGGCGCACCGU [Eternabot (L2) Solution 55] (Eterna round: R97, puzzle: Exclusion 3) | 24.4 | 16 | – | – |
| ACAUGAGGAUCACCCAUGUCUGGCUGGUCUGCUCCGGUUGUUGAGGAUAUAGUUCGGUGUUCGCGCUAGAAGGUGAGGGCUGGC [Aenatbe mod 38] (Eterna round: R96, puzzle: Exclusion NG 3) | 34.4 | 39 | – | apparent KD of MS2 coat protein [4]: 32.1 nM |
| AAAUAAGAAGGAUAUACAAAUUAAAAGGUCCUUAAGGCAAGACAUGAGGAUCACCCAUGUAGAAGGUCUGAAAA [Teati] (puzzle: Exclusion 2) | – | – | 23 | apparent KD of MS2 coat protein [1]: 39.5 nM; apparent KD of MS2 coat protein [3]: 22.6 nM |
| AUUAUAUAGGAAGGAUAUAGAAUAUUAUUUUAACAUGAGGAUCACCCAUGUAACCUUAUGUGUAGCUAGAAGGUCCAUUUGUUA [Title] (Eterna round: R96, puzzle: Exclusion NG 2) | – | – | – | apparent KD of MS2 coat protein [4]: 221 nM |
| AAUUAGCAAGCGAGAUCUCACAUGAGGAUCACCCAUGUGCUCGUCUUAUAAGGUACUGUGACGAAAGUCACGGUACC [Mat - Sensor, turn-off var - Eli Mod - D40] (Eterna round: R97, puzzle: Sensor, turn-off variant 1) | 14.8 | 15.8 | – | – |
| UCAGGCAAGUGUACAGCCAACAUGAGGAUCACCCAUGUCGGGAGAAGGACUGUUACACACCGCUCGUCUUACUUGCC [Eternabot (Original) Solution 35] (Eterna round: R97, puzzle: Sensor, turn-off variant 1) | 18.3 | 23.1 | – | – |
| AAAAUAAAGAUGCCUUUAAACAUGAGGAUCACCCAUGUGAGUAAGGAUAUCGGAACCAAUCGCGACGAGAAGGUACUCGCGUGU [Relela] (Eterna round: R96, puzzle: Exclusion NG 3) | 12.1 | 15.7 | – | apparent KD of MS2 coat protein [4]: 11.1 nM |
| AAGAAACAUGAGGAUCACCCAUGUGAGGAUAUGUAAAAGAAAAUAAAAUAAAGAAGAAACAGAAGGCACAAAGG [Mat - Mod of Hog D20] (puzzle: Exclusion 1) | – | – | 43.4 | apparent KD of MS2 coat protein [1]: 53.4 nM; apparent KD of MS2 coat protein [3]: 43 nM |
| AAUAAGUAUGUGAGGAUAUUGAGGAGGAGGAGGGACAAGAAGGCACAUGAGGAUCACCCAUGUAGGAAAGGACG [JR_BMEx4_Sub002] (Eterna round: R97, puzzle: Brourd's mod of Exclusion 4) | 46.9 | 28 | – | – |
| UUUAUUAAUUAAUAUAAUAAGAUCACAUGAGGAUCACCCAUGUAGGAUAUCAGCUCGAUUAGAGCUGAGAAGGACAUAAUUAUA [ExNG3/1-B1] (Eterna round: R96, puzzle: Exclusion NG 3) | – | – | – | apparent KD of MS2 coat protein [4]: 29.2 nM |
| GAUUGAGCUGUUAGGAUAUCCGCAGGCCGCCUGGAGGAGAAGGAACAUGAGGAUCACCCAUGUGCACGGGAGGC [Xemaesti] (Eterna round: R97, puzzle: Brourd's mod of Exclusion 4) | 13.4 | 15.8 | – | – |
| UCCUAACAUGAGGAUCACCCAUGUCAGGAUAUGAUACUAUGUACUUCGGUACAUAGUAUCAGAAGGGACAUCCU [Ex1-3: 9] (puzzle: Exclusion 1) | – | – | 14.7 | – |
| ACAAGAGCGGAAGGAUAUUGUACAUGAGGAUCACCCAUGUAAUAAAUGAGGAUCACGGAUGUAGUCAAGAAGGUCCGGAUAAGA [Ostracism 1 - Jieux - Exclusion NG 2] (Eterna round: R96, puzzle: Exclusion NG 2) | 47.7 | 50.6 | – | apparent KD of MS2 coat protein [4]: 60.8 nM |

| Sequence | apparent KD of MS2 coat protein (input ligand: FMN 200 uM) [nM] | apparent KD of MS2 coat protein (input ligand: none) [nM] | apparent KD of MS2 coat protein [2] [nM] | further results |
| --- | --- | --- | --- | --- |
| GCUCUGCGAGGAUAUACAUGAGGAUCACCCAUGUGCGAGUUACUUGUGAGGUCGGUUGGUAGAAGGCGCGGAGG [Mat - Exclusion 3 - Mod of JL D100] (puzzle: Exclusion 3) | – | – | 77.5 | – |
| CCUCAACAGUAGGAUAUCAUCAAACUAUUGUGAUGAGAAGGACUGACAUGAGGAUCACCCAUGUUGACGUGAUA [Exclusion 6 - 6:b] (puzzle: Exclusion 6) | – | – | 47.8 | – |
| GGUUGGCGAGGAUAUACAUGAGGAUCACCCAUGUGGUCCUGUAAAAAAAAAAACCUUUGUAGAAGGCGCGGGUC [salish99_ex3_r4_034] (Eterna round: R97, puzzle: Exclusion 3) | 211 | 233 | – | – |
| UUUUGUUUUUUAUUUUUUAACAUGAGGAUCACCCAUGUAACGAGCAGAUCUUCAUGCAAGCUUUUUGCUCGUCUUAU [Sensor v3 - Turn-off variant 1 - 42] (puzzle: Sensor v3, turn-off variant 1) | – | – | 16.1 | apparent KD of MS2 coat protein [1]: 42.2 nM; apparent KD of MS2 coat protein [3]: 60.6 nM |
| CCCGAUGGAUAGGAUAUCCGGCAAGUAUGCUAUGGAGAAGGGUUCACAUGAGGAUCACCCAUGUGGGUUAAACG [Eternabot (L1) Solution 74] (Eterna round: R97, puzzle: Exclusion 6) | 22 | 19.3 | – | – |
| GUUUUCAGACGGAGAUCCUACAUGAGGAUCACCCAUGUCUCACUAGCUUUUUGCUCGUCUUAUCCUCCUCUGUUCUC [Elimod 28 - Jieux - Sensor, turn-off variant 1] (Eterna round: R97, puzzle: Sensor, turn-off variant 1) | 336 | 460 | – | – |
| AGCUAGAUAGGAUAUGCCCGGGAUAACAUGAGGAUCACCCAUGUGGCCGAAUCAAAUCCAGCAGAAGGGUUUGGGA [Mod of ViennaUCT 12 - Jieux - Exclusion 5] (Eterna round: R97, puzzle: Exclusion 5) | 30.8 | 38.7 | – | – |
| CUUGUUUAUGUGAGGAUAUACUGUUAGUAAUGUUUGUAGAAGGUACAUGAGGAUCACCCAUGUUUAUUUAUAUU [JR_BME4_Sub043] (puzzle: Brourd's mod of Exclusion 4) | – | – | 18.1 | – |
| CCUCUACAUGAGGAUCACCCAUGUGAGGAUAUAAGAUUGCGAAUUCCGCACUACGGUCUUAGAAGGCGCGUGGA [Riarve] (puzzle: Exclusion 1) | – | – | 15.7 | – |
| AAUAAGUGAGGAUAUGGAAUAAUAAAUAAAAUAAUAAAUAACCAGAAGGCACAUGAGGAUCACCCAUGUAAUAA [JMF's solution 3] (puzzle: Exclusion 4) | – | – | 23.7 | apparent KD of MS2 coat protein [1]: 27.4 nM; apparent KD of MS2 coat protein [3]: 21.4 nM |
| CUGGUCCGAGGAUAUAUGAUGUGAUACAUGAGGAUCACCCAUGUUAUAUUAUGGAUGUAAAUAGAAGGCGGACUAG [Mat - Exclusion 5 - JL mod - D71] (puzzle: Exclusion 5) | – | – | 72.2 | apparent KD of MS2 coat protein [1]: 71.2 nM; apparent KD of MS2 coat protein [3]: 73.9 nM |
| UUCUUGCAAGGAUAUGAUUUAAGUAACAUGAGGAUCACCCAUGUUUUUCCGUUGUUAUGUUCAGAAGGUGCGUGAU [JR_E5_Sub021] (puzzle: Exclusion 5) | – | – | 54.2 | – |
| GGUCAGCUAGGAUAUACAUGAGGAUCACCCAUGUACUGACCCAUGCGGGAGCCUGCAUGUAGAAGGAGCAAUAU [Onzatiqula] (Eterna round: R97, puzzle: Exclusion 3) | 37 | 55.3 | – | – |
| UUGUUUGUAGUGAGGAUAUCGUUGAGGAAGAGGAUCGAGAAGGCACAUGAGGAUCACCCAUGUUAGAUGUGGUU [JR_BMOE4_Sub082] (puzzle: Brourd's mod of Exclusion 4) | – | – | 99.1 | – |
| UAUUAAACAAGCAGAUCCCACAUGAGGAUCACCCAUGUGCUCGUCUUAUAAGGUACUGUGACGAUAGUCACGGUACC [Mat - Sensor, turn-off var - Eli Mod - D62] (Eterna round: R97, puzzle: Sensor, turn-off variant 1) | 49 | 54.5 | – | – |
| AGUAGGUCUACCUUGGUGGAUCUGCAUAAAGCAAGUGAAACAUGAGGAUCACCCAUGUCCUCAUUUGCUCGUCUUAU [JL turnoff v2 99.20] (puzzle: Sensor v3, turn-off variant 2) | – | – | 634 | apparent KD of MS2 coat protein [1]: 14.8 nM; apparent KD of MS2 coat protein [3]: 13 nM |
| AUGUAGUAAGGAUAUAGAAAGAAGGAGUAAGAUAGAGAGUUCUAGAAGGUACAUGAGGAUCACCCAUGUUGGAG [JR_Exclu4_Sub081] (puzzle: Exclusion 4) | – | – | 22.2 | – |
